Laboratory results published in publication PMC3605307.

T1: Recombinant UL141 ectodomain (soluble, released from the Fc fusion), Q6RJQ3
T1 chain: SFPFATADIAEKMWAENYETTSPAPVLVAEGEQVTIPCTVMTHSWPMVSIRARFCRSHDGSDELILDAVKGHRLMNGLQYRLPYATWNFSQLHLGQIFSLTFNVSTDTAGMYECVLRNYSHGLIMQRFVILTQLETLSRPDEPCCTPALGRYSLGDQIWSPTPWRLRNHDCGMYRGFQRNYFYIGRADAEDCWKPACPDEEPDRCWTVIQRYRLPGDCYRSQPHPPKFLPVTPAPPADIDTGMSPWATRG


Molecular target: T1, Recombinant UL141 ectodomain (soluble, …)
Experiment: SPR
Settings: chain shown with the change

| Binder | Kd |
| --- | --- |
| Human TRAIL-R2-Fc fusion protein (wild type), O14763 M152A; R154A; K155A (protein) QQDLAPQQRAAPQQKRSSPSEGLCPPGHHISEDGRDCISCKYGQDYSTHWNDLLFCLRCTRCDSGEVELSPCTTTRNTVCQCEEGTFREEDSPEACAACRTGCPRGMVKVGDCTPWSDIECVHKESG | 7 nM |
| Human TRAIL-R2-Fc fusion protein (wild type), O14763 R154A (protein) QQDLAPQQRAAPQQKRSSPSEGLCPPGHHISEDGRDCISCKYGQDYSTHWNDLLFCLRCTRCDSGEVELSPCTTTRNTVCQCEEGTFREEDSPEMCAKCRTGCPRGMVKVGDCTPWSDIECVHKESG | 6 nM |
| Human TRAIL-R2-Fc fusion protein (wild type), O14763 M152A (protein) QQDLAPQQRAAPQQKRSSPSEGLCPPGHHISEDGRDCISCKYGQDYSTHWNDLLFCLRCTRCDSGEVELSPCTTTRNTVCQCEEGTFREEDSPEACRKCRTGCPRGMVKVGDCTPWSDIECVHKESG | 7 nM |
| Human TRAIL-R2-Fc fusion protein (wild type), O14763 P150A (protein) QQDLAPQQRAAPQQKRSSPSEGLCPPGHHISEDGRDCISCKYGQDYSTHWNDLLFCLRCTRCDSGEVELSPCTTTRNTVCQCEEGTFREEDSAEMCRKCRTGCPRGMVKVGDCTPWSDIECVHKESG | 8 nM |
| Human TRAIL-R2-Fc fusion protein (wild type), O14763 K155A (protein) QQDLAPQQRAAPQQKRSSPSEGLCPPGHHISEDGRDCISCKYGQDYSTHWNDLLFCLRCTRCDSGEVELSPCTTTRNTVCQCEEGTFREEDSPEMCRACRTGCPRGMVKVGDCTPWSDIECVHKESG | 8 nM |
